Data from patent publication US20020052476A1 (Human Genome Sciences, published 2002).

Legend:
[1] = biological target: T1, m-CysE (mutant CysE: amino acids 29-143 of SEQ ID NO: 2 plus a 27 amino acid C-terminal fusion product encoded by the pA2 vector)
T1 chain: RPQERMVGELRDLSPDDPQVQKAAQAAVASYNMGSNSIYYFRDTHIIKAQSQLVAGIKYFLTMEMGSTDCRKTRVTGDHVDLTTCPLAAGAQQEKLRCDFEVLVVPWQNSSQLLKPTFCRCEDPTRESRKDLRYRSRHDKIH

[2] = biological target: T2, recombinant human cystatin E (mature CysE secreted from baculovirus-infected Sf9 cells)
T2 chain: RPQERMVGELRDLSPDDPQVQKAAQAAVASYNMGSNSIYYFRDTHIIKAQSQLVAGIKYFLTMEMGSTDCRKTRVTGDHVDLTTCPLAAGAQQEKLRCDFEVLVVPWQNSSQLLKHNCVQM

[3] = biological target: T3, papain (EC 3.4.22.2; from Sigma) (UniProt P00784 134-345); assay: titration of papain activity (Bz-Arg-pNA hydrolysis) with varying inhibitor concentrations; linear titration curves
T3 construct: Commercial enzyme
T3 sequence (looked up): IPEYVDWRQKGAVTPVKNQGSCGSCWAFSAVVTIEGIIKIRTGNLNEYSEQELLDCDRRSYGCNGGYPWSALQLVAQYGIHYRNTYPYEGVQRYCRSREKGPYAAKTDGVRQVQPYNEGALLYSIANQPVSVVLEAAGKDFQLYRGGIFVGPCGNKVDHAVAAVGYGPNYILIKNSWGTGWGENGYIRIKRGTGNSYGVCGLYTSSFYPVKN
Text: To test the function of CysE and m-CysE as protease inhibitors their effect on papain hydrolysis of casein was investigated according to the method of Example 10. […] The m-CysE mutant performed similarly (data not shown).
The methods used for active site titration of papain, titration of the molar enzyme inhibitory concentration in cystatin E preparations, and for determination of equilibrium constants for dissociation (Ki) of complexes between cystatin E and cysteine peptidases are described in detail in Hall et al., Biochem. J., 291:123-29 (1993) and Abrahamson, Methods Enzymol., 244:685-700 (1994), both of which are hereby incorporated herein by reference. The enzymes used for equilibrium assays were papain (EC 3.4.22.2; from Sigma, St Louis, Mo.) and cathepsin B (EC 3.4.22.1; from Calbiochem, La Jolla, Calif.). […] Steady state velocities were measured and Ki values were calculated according to Henderson, Biochem J., 127:321-333 (1972), incorporated herein by reference. Corrections for substrate competition were made using Km values of 150=B5M for cathepsins B (Barrett and Kirschke, Methods Enzymol., 80:535-561 (1981) and 60=B5M for papain (Hall et al., Biochem. J., 291:123-29 (1992)), both of which are hereby incorporated herein by reference.

B1: papain (EC 3.4.22.2; from Sigma) (protein)
chain: IPEYVDWRQKGAVTPVKNQGSCGSCWAFSAVVTIEGIIKIRTGNLNEYSEQELLDCDRRSYGCNGGYPWSALQLVAQYGIHYRNTYPYEGVQRYCRSREKGPYAAKTDGVRQVQPYNEGALLYSIANQPVSVVLEAAGKDFQLYRGGIFVGPCGNKVDHAVAAVGYGPNYILIKNSWGTGWGENGYIRIKRGTGNSYGVCGLYTSSFYPVKN
For B1, the “papain hydrolysis of casein” value [1] was “Both CysE and m-CysE showed a dose- and time-dependent inhibition of papain activity (data not shown)”, the “papain hydrolysis of Bz-Arg-pNA in 10 minute assays” value [2] was “At mM concentrations, the recombinant CysE completely inhibited papain hydrolysis of Bz-Arg-pNA in 10 minute assays” and the “papain hydrolysis of casein” value [2] was “Both CysE and m-CysE showed a dose- and time-dependent inhibition of papain activity (data not shown)”.

B2: recombinant human cystatin E (mature CysE secreted from baculovirus-infected Sf9 cells) (other)
chain: RPQERMVGELRDLSPDDPQVQKAAQAAVASYNMGSNSIYYFRDTHIIKAQSQLVAGIKYFLTMEMGSTDCRKTRVTGDHVDLTTCPLAAGAQQEKLRCDFEVLVVPWQNSSQLLKHNCVQM
modifications: partly N-glycosylated (protein band doublet, a glycosylated and an unglycosylated form)
notes: Full-length cDNA was expressed in Sf9 cells; also called recombinant CysE
B2 was tested, and the Ki [3] was < 10 nM.
